Sequences and labels used below:
B1: Antibody 23 (antibody, V domains shown)
VH: EVQLVQSGAEVKKPGATVKISCKVSGYSITDYLLHWVQQAPGKGLEWMGWIDPEEGKTKYGQKFQSRVTITADTSTDTAYMELSSLRSEDTAVYYCAANSGTGTMDAWGQGTLVTVSS
VL: DIVMTQSPATLSVSPGERATLSCKASQNVGSNVDWYQQKPGQSPRVLIYKASIRYTGIPARFSGSGSGTEFTLTISILQSEDFAVYFCMQSKSYPITFGQGTKLEIK
notes: captured on AHC sensors
B2: Antibody 24 (antibody, V domains shown)
VH: B1 VH with E55D, G56A
VL: B1 VL
notes: captured on AHC sensors
B3: Antibody 25 (antibody, V domains shown)
VH: B1 VH with N99Q
VL: B1 VL
notes: captured on AHC sensors
B4: Antibody 26 (antibody, V domains shown)
VH: B1 VH with G101A
VL: B1 VL
notes: captured on AHC sensors
B5: Antibody 28 (antibody, V domains shown)
VH: B1 VH with E55D, G56A, G101A
VL: B1 VL
notes: captured on AHC sensors
B6: Antibody 27 (antibody, V domains shown)
VH: B1 VH with E55D, G56A, N99Q
VL: B1 VL
notes: captured on AHC sensors
B7: Antibody 18 (antibody, V domains shown)
VH: QVQLVQSGAEVKKPGASVKVSCKASGYTFTDYIIHWVRQAPGQGLEWMGWIDPDYGNTDYADKFKKRVTMTADTSISTAFMELSRLRSDDTAVYYCARDDGSPLVMDAWGQGTLVTVSS
VL: DIQMTQSPSSLSASVGDRVTITCQGSQNIDNYLAWFQQKPGKAPKLLIYSTYSLQTGVPSRFSGSRSGTDFTLTISSLQPEDFATYFCFQYNQGYMFGGGTKLELK
notes: captured on AHC sensors
B8: Antibody 19 (antibody, V domains shown)
VH: B7 VH with G101A
VL: B7 VL
notes: captured on AHC sensors

The source of these data is patent publication US20250320303A1 (SHENGHE CHINA BIOPHARMACEUTICAL, published 2025).

Substitutions are numbered along the chain they refer to.

The target in the assay is T1, human W3785-hProl.ECD.His (Human-TNFR2-His) protein (human, UniProt P20333 23-257).
T1 construct: extracellular domain; not shown: His tag
T1 sequence (looked up): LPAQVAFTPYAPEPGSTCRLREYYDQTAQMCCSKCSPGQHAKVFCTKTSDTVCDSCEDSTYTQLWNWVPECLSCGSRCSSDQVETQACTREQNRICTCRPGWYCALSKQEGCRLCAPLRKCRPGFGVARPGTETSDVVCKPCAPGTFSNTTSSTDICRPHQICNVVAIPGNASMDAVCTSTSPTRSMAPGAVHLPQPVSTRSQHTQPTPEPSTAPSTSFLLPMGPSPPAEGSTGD
Nature of the assay: BLI (Octet Red96e), antibody on AHC sensor, Human-TNFR2-His in solution, multiple concentrations.
The term Kd denotes the concentration at which binding is half-saturated. By koff is commonly meant a measure of how fast the partners let go of each other. A higher koff goes with a short-lived complex. A word on the kon: it is the second-order rate constant of association. A low value points to slower complex formation. As for B1, the Kd is 0.766 nM, the koff is 0.000371 s⁻¹ and the kon was determined as 484000 M⁻¹ s⁻¹.

With B2, the Kd stood at 0.152 nM, the off-rate (koff) is 0.000109 s⁻¹ and the kon is 718000 M⁻¹ s⁻¹.

Molecule B3 gave a Kd of 1.39 nM, a koff of 0.00193 s⁻¹ and a kon of 1.39e+06 M⁻¹ s⁻¹.

Regarding B4, binding was characterised by a dissociation constant (Kd) of 0.0551 nM, the koff was determined as 1.41e-05 s⁻¹ and the kon is 256000 M⁻¹ s⁻¹.

Molecule B5 yielded a dissociation constant Kd below 0.001 nM, a koff below 1e-07 s⁻¹ and a kon of 225000 M⁻¹ s⁻¹.

As to B6, the Kd was determined as 0.537 nM, the koff came out at 0.00077 s⁻¹ and the kon came out at 1.44e+06 M⁻¹ s⁻¹.

In the case of B7, the Kd is 0.0638 nM, the koff was 6.22e-05 s⁻¹ and the kon was found to be 974000 M⁻¹ s⁻¹.

On to B8, for which the Kd stood at 1.48 nM, the koff came out at 0.00127 s⁻¹ and the on-rate (kon) is 862000 M⁻¹ s⁻¹.
